The values below come from the supplement of paper PMC9942255.

The subject of this series is Bacillus subtilis DB104 (SP-AmyQ fusion secretion). Description: AmyQ secretion efficiency, weighted average sort bin (1 = best secretion, 10 = worst) (bin number (weighted average, 1-10)); higher = lower secretion efficiency. Summed up:
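Occupied alginate beads were sorted by large-particle flow cytometry into 10 equally populated bins according to green/red fluorescence ratio. Each bead (~65 nL) held fluorescein-starch and about 0.3 cells of a B. subtilis DB104 library expressing mature AmyQ fused to designed signal peptides from the amyE locus, and beads were grown about 13 h at room temperature and stained with nile red before sorting. Bin amplicons were Illumina-sequenced, and the secretion score is the read-frequency-weighted average bin number, normalised to beads per bin, excluding low-abundance sequences.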

In turn, MAIIIAIIAAVIVIAALITFNVQNASPG showed an AmyQ secretion efficiency of 7.71. Under MKRITINIKRRKRRAAVISLTGTAEAAEK stands 7.96. Regarding MKKSQYGGQTFGLVMGFSQFQPSTVFAADK, the AmyQ secretion efficiency worked out at 6.36. MPYLKRVLLLLVTGLFMSLFAVTATFSAQTG gave an AmyQ secretion efficiency of 4.6.

MRMLWRSLALCGLALTLAKRRCAQAAEP showed an AmyQ secretion efficiency of 6.64. For the sequence MSLMIVFMTLPLLIVCLAFSSFSASARAASE, the AmyQ secretion efficiency amounted to 4.54. In turn, MTKLKMLSMLRKKKRRLFIFSSQALAVQY yielded an AmyQ secretion efficiency of 6.63.

Sequence MKKSQYFIVFICFFVLFSVHPIATAAADS gave an AmyQ secretion efficiency of 3.6. Sequence MRSYIKVLTMCFLGLILFVEEDALADNS yielded an AmyQ secretion efficiency of 2.58.

With MRKKRVKRCVMAASLTLGSLLPAGYASAKED, the AmyQ secretion efficiency was 3.34. For MRPVFPLILSAVLFLSCFSVSTFFGARQTEASASKR the value was 2.65; for MKKKRRKCSICCAAVLLAGGAAQAEAV, 6.1. For MRGKSSTRKSLIMLIAGFLISFSFQM the value was 7.08.

For the sequence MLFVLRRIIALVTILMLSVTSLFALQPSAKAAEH, the AmyQ secretion efficiency amounted to 1.93.

The sequence MKRNLTITMFILVLSFLSIIVAYPIQTNASPM had an AmyQ secretion efficiency of 5.49.

Take MLCVMMLLFSAIASFPVSAQNKDQ: the AmyQ secretion efficiency stood at 6.98. With MKVLLSALLLLLFAFEPSASGAPR, the AmyQ secretion efficiency is 3.63.

Sequence MKKWKQTQQSGIAAAISIFVYVSTGSEK registered an AmyQ secretion efficiency of 7.55. Under MRKKTKNRLISSVLSTVVISSLLFPGAAGARKK stands 2.52; under MRIFKKAVFVIMISFLIATVNVNTAHAAEE, 1.56.

With MHLIRAKGAVCLAVVLIAGCRFNEDQHQAEGENT, the AmyQ secretion efficiency amounted to 6.02. For the sequence MRPVFPLILSAVLFLSCFFGARQTEASFSKR, the AmyQ secretion efficiency was 2.95.

Turning to MKRKRSIMACLILFSFTITTFINTETISAFSN, the AmyQ secretion efficiency turned out to be 3.86. MFKKQSRATSALTFSLSLVLPLDGHAKAQEV showed an AmyQ secretion efficiency of 6.63.

In turn, MFNRLFRVCFLAALIMAFTVYAQKP came in with an AmyQ secretion efficiency of 6.93. The sequence MKRLLVSLRVWMVFLMPDRKTAAAAVY gave an AmyQ secretion efficiency of 6.21. Under MKKAFLVFLSVVLVTTVFLVKQQESVAQNKQL stands 2.89. Under MRSYIKVLTMCFLGLILFVPTGLADNS stands 1.86. MRPVFPLILSAVLFLSCFFGARQTETSASKR had an AmyQ secretion efficiency of 5.36. Consider MLKKKWMVGLLAGCLAAGFFGYNAFATEN, for which the AmyQ secretion efficiency worked out at 6.85. In turn, MLLKWMSGLLLVAVGFSFTQVMVHAGET returned an AmyQ secretion efficiency of 5.02. Under MGCTMMLLFSAIASFPVSAQAKDQ stands 6.4; under MKLSVKIAGVLTVAAAAMTAKMYATHKGN, 6.71. For MRGKSAVLLSLIMLIAGFLISFQFQM the value was 7.36. Under MKKVLMAFIICLSLILSVLAAPPSGAKAASE stands 1.49; under MRGKSAVLLSLIMLIAGFLITASFPTVTGPPFSFSFQM, 8.88; under MKSKGSIMACLILFSFTITTFINTETRSAFSN, 8.47. For the sequence MKRIRIPMTLALGAALTIAPLTVATASFASAEEN, the AmyQ secretion efficiency worked out at 4.63. MMIKQNMSSNSSCVICLSLLVFGTTAAHAEET had an AmyQ secretion efficiency of 4.39. Under MKSKGSIMACLILFSFTITDEINTETISAFSN stands 6.09; under MHLIRAAGAVCLAVVLIAGCRFNEDQHQAEEENT, 4.77. Under MLKKIALTLCPAIVGSLLFFTAPASVHVS stands 6.13. Under MKLSVKIAGVLTVAAAAMTAKMYATLKGN stands 7.31; under MTSSLIGFLVLVPALIMSGITLIEANKK, 3.95; under MKSKWMSGLLLVAVGFSFTQVMVHCGET, 4.81. MKKKQVMLALTAAAGLGLTALHSAPANKAAPL yielded an AmyQ secretion efficiency of 5.6. The sequence MLTINLLTIYIMLLGLIAWFPGAAQAEEK yielded an AmyQ secretion efficiency of 4.46. MRMLWRSLALCGLALTLAPCAQIAEP showed an AmyQ secretion efficiency of 6.42.

MLKKKWMVGLLAGCLAAGRKKKKKAFATEN: the AmyQ secretion efficiency worked out at 7.31. Under MLKKKWMVGLLAGCLAAGGFSYNAFAKRK stands 5.47. Sequence MKRLLVSLRVWMVFLMNWVTPDRKTQAAAVY showed an AmyQ secretion efficiency of 6.81. Under MKSKGSIMACLILFSFTITTFINTETCSAFSN stands 4.49. With MRKKRVITCVMAASLTLGSLLAAAIASAKED, the AmyQ secretion efficiency turned out to be 5.2.

Sequence MKSCKQKQVCSLAAILLLIPSVSFAADS registered an AmyQ secretion efficiency of 6.15. For MKKAFLVFLSVVLVTTVFLVVSFESVAQAKQL the value was 2.33; for MKKRLIAPMLKRRKSLAFFAMSGSAQAAAY, 7.31; for MRKSLITLGLASIVIGTSSFLIPFTSKTASAETL, 2.2. For MKRLLVSLRVWMVFLMNWVTPDRKTAAGAVY the value was 7.15; for MKLKKRVSMFLVALTMCGGLFVTPAKAEEE, 2.9. Consider MKLAKRVSALTPSTTLAITLKAKEL, for which the AmyQ secretion efficiency was 8.05. As for MKNMSCKLVVSVTLFFSFLTIGPLAHCQNS, the AmyQ secretion efficiency amounted to 1.91. In turn, MLCVMMLLFSAIASTPVSAQAKDQ showed an AmyQ secretion efficiency of 5.3.

On to MLKKIALTLCPAIVGSLLFFTAPASQHVS, for which the AmyQ secretion efficiency was determined as 5.33. Under MTMLRKIIGWILLLCPLFAFTVIASGKEV stands 8.01; under MKNMSCKLVVSVTLFFSFLTAHAQNS, 6.96; under MKKFIVFICFFVLFSVHPIAAAAADS, 4.38. Sequence MKQTRSKQSSFMLLAMTGQTALAKDV came in with an AmyQ secretion efficiency of 7.56. For MRKKRTVITCVMAASLTLGSLLPAGYATAKED the value was 6.07; for MNKPTKLFSTLALAAGMTDEEEEEAGTIHAQQP, 7.16; for MKRYRQKCLLLVTIMFLGVLFGMQQANHG, 5.69. The sequence MLKKKWMVGLLAGCLAAGGFSYNAFDTEN had an AmyQ secretion efficiency of 6.19. Consider MTKKYWQSPYYCRLLISGWLAPAASASAQTT, for which the AmyQ secretion efficiency is 8.15. For MKKWLIIAVSLAIAIVLFMYTKGEPKAAGM, the AmyQ secretion efficiency was determined as 5.65.

On to MNLRKILLSSALSLGMLVSAAPVLGTSS, for which the AmyQ secretion efficiency is 4.45. The sequence MTTGLLASLVLCLSLSPLVSTNEVFAATT came in with an AmyQ secretion efficiency of 4.99. For MRNLTKTSLLLAGLCTAARRKKKKHASAEES the value was 7.09. For MKSKGSIMSCLILFSFTITTFINTETISAFSN the value was 3.29.

MKRLFMKASLVLFAVVFVFAVKGAGAKAETH showed an AmyQ secretion efficiency of 1.83. MKLRKVLTGSVLSLVSASPAFATSP yielded an AmyQ secretion efficiency of 3.59. For MKVLLSALLLLLFAFEPSDSGKKL the value was 6.13; for MRMLWRSLALCGLALTLAPCPQAAEP, 6.73.
